The text below walks through data of the supplement of paper PMC10724198.

± gives the standard deviation of the averaged measurements.
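Further: PSI is a weighted mean of sequencing reads over stability bins, variants kept only with over 10 reads, mCherry proximal and sfGFP distal, peptide attached via GGGS linker.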

The data set relates to Saccharomyces cerevisiae. Briefly: protein stability index of tFT-peptide fusion (C-terminal peptide) (PSI (0-1 scale)); higher = more stable (slower turnover). The conditions noted are these: genetic background: wild type; temperature: 30 C.
Regarding RCIAAEFFRVHP, the protein stability index was 0.685 ± 0.019. The value for RCIASHRLSLRT was 0.682 ± 0.037; that for RCTRAAGLAAPA was 0.691 ± 0.0088; that for RCTWEATYNLRY was 0.749 ± 0.092. In turn, RCVSLDVPPTGA had a protein stability index of 0.688 ± 0.013.

RDALVNADKIGR came in with a protein stability index of 0.703 ± 0.061. The sequence RDAWLGMSQYTF registered a protein stability index of 0.7302 ± 0.0051. RDCVVSCSCIHI returned a protein stability index of 0.694 ± 0.057.

Sequence RDGKRHSSQWRG returned a protein stability index of 0.659 ± 0.037. Sequence RDGLWCFSEFLG yielded a protein stability index of 0.731 ± 0.048. Under RDGRAGGDIGAT stands 0.618 ± 0.11.

RDNNSNEMGQAI registered a protein stability index of 0.723 ± 0.016.

In the case of RDPIGRPEMSKI, the protein stability index was determined as 0.67 ± 0.086.

In the case of RDPTPPNPPPSR, the protein stability index stood at 0.763 ± 0.057. The value for RDTFLKMLDERN was 0.732 ± 0.042. RDVVRGVSRGGR had a protein stability index of 0.714 ± 0.02. Sequence REAPPYQSHVAS showed a protein stability index of 0.676 ± 0.065. REDAKLGYGKKK displayed a protein stability index of 0.637 ± 0.061. REGGVLGVVKWS: the protein stability index is 0.668 ± 0.02. Under REGPSPLDPSRF stands 0.684 ± 0.051; under RELKSPRCRTHR, 0.653 ± 0.12.

For RELLWFIFTGFC, the protein stability index was 0.622 ± 0.042. Under REREKITRKRNT stands 0.69 ± 0.01.

Sequence RERGVSVKLGGG had a protein stability index of 0.677 ± 0.026. The value for RESPYSRSRCLL was 0.733 ± 0.17; that for RETMFTRFRGSD was 0.627 ± 0.063; that for RFAFLPPPPLPP was 0.636 ± 0.011. The value for RFCQSHTSVSSF was 0.652 ± 0.039.

RFGGGAVWGLGG: the protein stability index is 0.666 ± 0.02. Sequence RFGPPPPPPSTL registered a protein stability index of 0.71 ± 0.035.

Consider RFGRGAVGGLGG, for which the protein stability index amounted to 0.668 ± 0.02.

In turn, RFGSGYLRRYTH showed a protein stability index of 0.776 ± 0.011. The value for RFIGVVTRLRRC was 0.643 ± 0.042; that for RFKLEKIKHKKK was 0.755 ± 0.054; that for RFPRSSPPHRSL was 0.717 ± 0.023. Under RFRSMTGVIVSE stands 0.6772 ± 0.002. RFSPRSLIFFPS: the protein stability index came out at 0.612 ± 0.03. Under RFTPLSFCTDRV stands 0.658 ± 0.025; under RGARTGGGRDGS, 0.705 ± 0.025.

RGEGGRALGVGR returned a protein stability index of 0.688 ± 0.015.

As to RGEGGRGRTVEG, the protein stability index turned out to be 0.631 ± 0.077. In turn, RGEVQPRRDPGA displayed a protein stability index of 0.662 ± 0.0095.

In turn, RGFGSGTVGVQS displayed a protein stability index of 0.616 ± 0.034. The value for RGFMLGFVSRFS was 0.625 ± 0.039. As to RGFPPPPLLSSR, the protein stability index was determined as 0.74 ± 0.059. Under RGGGEWGKEDSQ stands 0.705 ± 0.019; under RGGGGRGWGSRG, 0.67 ± 0.027. Turning to RGGGGVLEVLLG, the protein stability index amounted to 0.5347 ± 0.0046.

As to RGGGQVLGVRVG, the protein stability index stood at 0.667 ± 0.089.

As for RGGGSWWCGGDQ, the protein stability index was determined as 0.76 ± 0.024. Regarding RGGGVGRGLGGK, the protein stability index was 0.605 ± 0.066. The value for RGGLRRGSGREG was 0.684 ± 0.068; that for RGGPLSSGVVLV was 0.714 ± 0.049; that for RGGRGAVRWLRG was 0.66791 ± 7.1e-07. Turning to RGGVAGQPDAGR, the protein stability index came to 0.666 ± 0.014. Under RGKIKKTRKDNK stands 0.598 ± 0.021; under RGKTGLTRYIGV, 0.709 ± 0.074. The sequence RGLGGGAECGRW gave a protein stability index of 0.785 ± 0.12.

For the sequence RGLGVFGVVSPA, the protein stability index worked out at 0.7 ± 0.057. RGLRIFMSRAWH displayed a protein stability index of 0.75 ± 0.043.

As to RGLVLWVVSGRG, the protein stability index worked out at 0.6155 ± 0.0045. The value for RGLVSPPPPLPS was 0.681 ± 0.024; that for RGLYPLKVDCQW was 0.753 ± 0.036; that for RGPRGGFHFFRA was 0.6657 ± 0.003.

As for RGREGSSVAVMV, the protein stability index came out at 0.646 ± 0.04. Under RGRFGYTSSTLA stands 0.686 ± 0.041; under RGRGRVFVFGNW, 0.726 ± 0.033. The value for RGRLRFGNTTGI was 0.691 ± 0.035; that for RGRRPRPGGTGT was 0.641 ± 0.016.

The sequence RGRRRGGQQIAE had a protein stability index of 0.666 ± 0.007.

In turn, RGRSGASSGWRG registered a protein stability index of 0.659 ± 0.044. The value for RGSQLFWSRGYL was 0.707 ± 0.035; that for RGSSPRAVTVWM was 0.804 ± 0.075; that for RGTDSRERIKRR was 0.721 ± 0.06. The value for RGTWSLFYAFLD was 0.578 ± 0.035; that for RGVGAGGLEGIG was 0.535 ± 0.011. Under RGVGCLIITHSL stands 0.608 ± 0.073; under RGVGGVLEVLLG, 0.5256 ± 0.0032; under RGVGWGGLEGIG, 0.5235 ± 0.0014.

Take RGVGWVLEVLLG: the protein stability index was determined as 0.518 ± 0.0087.
